For 32 molecules, Abundance of phage clones results are on record in patent US20180086790A1.

Test [1] deals with pheromone-biosynthesis-activating neuropeptide receptor (fire ant PBAN-R) (fire ant (Solenopsis invicta)). The test can be described thus: phage display selection on Sf9 cells expressing PBAN-R, 3-4 rounds; count of sequenced clones.
Test [2] shares this target. Described as above. This is another data set of the same source.

Read-outs that look alike come from different tables or passages of the source.

For ERVGTHF (SEQ ID NO: 20) (peptide), the Abundance of phage clones in test [1] amounted to 1 clones. Take ERVGTHY (SEQ ID NO: 24) (peptide): in test [1], the Abundance of phage clones was found to be 1 clones.

As for HSRVSGT (SEQ ID NO: 21) (peptide), in test [1], the Abundance of phage clones is 1 clones. Still for that read-out and setting: then IHIGSHF (SEQ ID NO: 16) (peptide), with 1 clones; and IHXGTHF (SEQ ID NO: 22) (peptide), with 1 clones. As for IKIGSHY (SEQ ID NO: 26) (peptide), in test [1], the Abundance of phage clones was found to be 1 clones. Regarding IKVGPHY (SEQ ID NO: 25) (peptide), the Abundance of phage clones in test [1] was 1 clones. Turning to IQIGTHF (SEQ ID NO: 18) (peptide), the Abundance of phage clones in test [1] worked out at 1 clones.

With LPMTKHV (SEQ ID NO: 30) (peptide), the Abundance of phage clones in test [1] turned out to be 1 clones. Turning to LPWQIHN (SEQ ID NO: 29) (peptide), the Abundance of phage clones in test [1] stood at 1 clones.

NTGGSMA (SEQ ID NO: 35) (peptide): the Abundance of phage clones in test [1] came out at 1 clones.

NTGSPYE (SEQ ID NO: 36) (peptide) displayed an Abundance of phage clones in test [1] of 1 clones. On the same count and under the same terms, then QQTKNYY (SEQ ID NO: 32) (peptide), with 1 clones; and QRIGLHY (SEQ ID NO: 27) (peptide), with 1 clones; and QSIGTHF (SEQ ID NO: 19) (peptide), with 1 clones. Consider SQLPWYS (SEQ ID NO: 34) (peptide), for which the Abundance of phage clones in test [1] was determined as 1 clones. With TNANHYF (SEQ ID NO: 31) (peptide), in test [1], the Abundance of phage clones worked out at 1 clones. In test [1], TNGDSAR (SEQ ID NO: 33) (peptide) showed an Abundance of phage clones of 1 clones. The molecule TQIGTHF (SEQ ID NO: 17) (peptide) displayed an Abundance of phage clones in test [1] of 1 clones. Consider TXVGSHF (SEQ ID NO: 15) (peptide), for which the Abundance of phage clones in test [1] is 1 clones. The molecule VSRTSHL (SEQ ID NO: 28) (peptide) displayed an Abundance of phage clones in test [1] of 1 clones. Same read-out and setting: with YSSPSHF (SEQ ID NO: 23) (peptide) the figure was 1 clones. CIVQGSHFC (loop-constrained by a pair of flanking cysteine (C) residues) [… (SEQ ID NO: 10)]: the Abundance of phage clones in test [2] was found to be 2 clones. Still for that read-out and setting: with CLKIGSHFC (Cysteine-Cysteine S-S bond at the N- and C-terminal ends) [… (SEQ ID NO: 3)] the figure was 7 clones; with CERVGSHFC (loop-constrained by a pair of flanking cysteine (C) residues) [… (SEQ ID NO: 5)], 3 clones; with CMARYMSAC (Cysteine-Cysteine S-S bond at the N- and C-terminal ends) [… (SEQ ID NO: 11)], 2 clones.

With CVKLGSHFC (Cysteine-Cysteine S-S bond at the N- and C-terminal ends) [… (SEQ ID NO: 6)], in test [2], the Abundance of phage clones was 2 clones.

In the case of CIVQGSHFC (loop-constrained by a pair of flanking cysteine (C) residues) [… (SEQ ID NO: 7)], the Abundance of phage clones in test [2] was 2 clones. For CRGATPMSC (Cysteine-Cysteine S-S bond at the N- and C-terminal ends) [… (SEQ ID NO: 12)], the Abundance of phage clones in test [2] worked out at 2 clones. As for CVKQGTHFC (loop-constrained by a pair of flanking cysteine (C) residues) [… (SEQ ID NO: 9)], in test [2], the Abundance of phage clones was determined as 2 clones. Turning to CIQQGSHFC (loop-constrained by a pair of flanking cysteine (C) residues) [… (SEQ ID NO: 4)], in test [2], the Abundance of phage clones is 3 clones. CQSINGHFC (loop-constrained by a pair of flanking cysteine (C) residues) [… (SEQ ID NO: 8)]: the Abundance of phage clones in test [2] was determined as 2 clones.
